Assay results as given in patent US20060252716A1, “Method for reversing the immunosuppressive effects of the melanoma inhibitory activity "mia"” (priority 2000, published 2006).

Experiments:
[1] = tested on: MIA; assay: Inhibition of MIA expression by antisense sequences; type: cell-based, human
[2] = tested on: Peripheral Blood Mononuclear Cells (PBMCs); conditions: addition of MIA; cited from earlier work
[3] = tested on: malignant melanoma cell; conditions: cited from earlier work
[4] = tested on: cells; conditions: cited from earlier work
[5] = tested on: LAK cytotoxicity against malignant glioma cell lines (HTZ-17, -243, -374, -375); assay: CARE-LASS calcein-release assay, effector cells pretreated with MIA; type: cell-based
From the text: To study the effects of MIA upon cytotoxic T-lymphocytes (CTL) and Lymphokine Activated Killer cells (LAK cells) a CARE-LASS assay has been employed (Lichtenfels, R., Biddison, W. E., Schulz, H., Vogt, A. B. and R. Martin. CARE-LASS (calcein-release assay), an improved fluorescence based test system to measure cytotoxic lymphocyte activity J. Immunol. Meth., 172: 227-239, 1994). Briefly, glioma cells were harvested, washed in 5% FCS/PBS solution and resuspended at 10 Mio cells/ml in 5% FCS/FBS. Calcein-AM was added to a final concentration of 25 μM (Molecular Probes, USA). The cells were labeled for 30 min at 37° C. then washed twice in 5%/FCS/PBS, adjusted to 1 Mio cells/ml and loaded into 96-well U-shaped microtiter plates at the final concentration of 0.1 Mio/100 μL/1 well (Nunc, Denmark). To measure cytotoxic activity of effector cells pretreated with MIA (f.c. 500 ng/ml), wells were loaded with 100 μL of CTL and LAK cells to produce the desired E:T ratios of […]. […] After incubating the plate for 4 h at 37° C. the supernatants (50 μL) were transferred into new wells and measured using an automated fluorescence scanner (Titertek Fluoroskan II, Germany). The percent cytotoxicity was determined from the following equation: [formula]

[6] = tested on: human MIA-secreting melanoma as well as breast cancer cell lines; assay: Tumor invasion and metastasis in scid-mice and nude mice; type: in vivo; conditions: transfecting vector expressing the antisense sequence
From the text: Inhibition of endogenous MIA synthesis by a transfecting vector expressing the antisense sequence (SEQ. ID No 9): […]

In the case of “MIA-0202-N: MIA antisense sequence ATG GTG AGG AAT CG”, the “inhibiting MIA expression” value [1] is reported as “Less active or inactive”.

With “MIA-1277-N: MIA antisense sequence GAA TGG TCA GGA ATG G” the “inhibiting MIA expression” value [1] was “Less active or inactive”.

With “MIA-1278-W: MIA antisense sequence CTT GGA GAA GAG ATA C” the “inhibiting MIA expression” value [1] was “Active”.

For “MIA-2841-W: MIA antisense sequence GTC AGG AAT CGG GAG”, the “inhibiting MIA expression” value [1] was “Active”.

In the case of “MIA-2842-W: MIA antisense sequence TGC CTC CCC AGA AG (antisense TGCCTCCCCAGAAG; all phosphorothioate, sugars by position and methylation of C not given here; listed as Homo sapiens)”, the “inhibiting MIA expression” value [1] is reported as “Active”.

B1: MIA: polypeptide Melanoma Inhibitory Activity; 131-amino acid precursor processed into a mature 107-amino acid protein (protein, UniProt Q16674 25-131, looked up)
Melanoma-derived growth …: GPMPKLADRKLCADQECSHPISMAVALQDYMAPDCRFLTIHRGQVVYVFSKLKGRGRLFWGGSVQGDYYGDLAARLGYFPSSIVREDQTLKPGKVDVKTDKWDFYCQ
For B1, the “IL-2-stimulated PBMC proliferation” value [2] is listed as “only slightly inhibited”, the “tumor cell growth inhibition” value [3] is listed as “potent tumor cell growth inhibitor” and the “inhibits cell proliferation (cell cycle effect)” value [4] is listed as “prolonging of the S-Phase and arrest of the cells in the G2 compartment”. For the same molecule, the “inhibition of autologous and allogenic LAK cytotoxicity compared to controls” value ([5]; MIA f.c. 500 ng/ml, E:T ratios 1:10 and 1:100, 4 h) was “up to 40%” and the “Allogenic anti-glioma LAK immune response” value ([5]; exogenous addition of MIA) was “strongly inhibited”.

B2: SEQ. ID No 9: long MIA antisense sequence, or parts of it, expressed from a transfecting vector (nucleic acid, listed as Homo sapiens)
antisense: GGCAGGGCCAGCGGTAGGCTGAGCTCACTGGCAGTAGAAATCCCATTTGTCTGTCTTCACATCGACTTTGCCAGGTTTCAGGGTCTGGTCCTCTCGGACAATGCTACTGGGGAAATAGCCCAGGCGAGCAGCCAGATCTCCATAGTAATCTCCCTGAACGCTGCCTCCCCAGAAGAGCCGCCCACGGCCCTTCAGCTTGGAGAAGACATACACCACTTGGCCCCGGTGAATGGTCAGGAATCGGCAGTCGGGGGCCATGTAGTCCTGAAGGGCCACAGCCATGGAGATAGGGTGGCTGCACTCCTGGTCCGCACACAGCTTCCGGTCAGCCAGCTTGGGCATAGGACCACCCCTGACACCAGGTCCGGAGAAGGCAGACAGCAAGATGATGACACCAAGGCACACCAGGGACCGGGCCATCGTGGACTGTGAGCAAGAGAGTGAGCAAGGGGGTGCTGG
modifications: expressed from transfecting vector
In the case of B2, the “tumor invasion and metastasis” value [6] is reported as “strongly reduced”.
